System: aroA gene-mutant E. coli strain AB2829
Test: In vivo complementation: growth on solid M63 restrictive medium
Assay type: cell-based
Parameters: key: −: failed to grow; +: able to grow
Conditions: for complementation condition, C-terminal: C-terminal fragment alone; for complementation condition, N-terminal: N-terminal fragment alone
From the text: The pKU2100 plasmid constructed as described above and corresponding pACYC1184 plasmid were introduced separately or together into the strain AB2829 deficient in E. coli aroA gene. Then, the strain was streaked on solid M63 restrictive medium and cultured overnight to determine the growth.
In order to test if EPSPS achieves fragment complementation after in vivo expression, genes encoding EPSPS N-terminal peptides were constructed into pACYC184, and genes encoding EPSPS C-terminal peptides were constructed into pBR322 (see the section Materials and Methods for the detailed construction method). Afterwards, these plasmids were introduced into aroA gene-mutant E. coli strain AB2829. EPSPS activity of the protein fragments encoded by these genes was determined by the growth of the strains on M63 restrictive medium.
The pACYC184 and pBR322 plasmids are able to be expressed in the same bacterial cell since they have replicons p15A and ColE1 respectively. In this regard, a pACYC184 plasmid was co-introduced into aroA gene-mutant E. coli strain AB2829 together with a corresponding pKU2100 plasmid, wherein the N-terminal peptide encoded by the pACYC184 plasmid and C-terminal peptide encoded by the pKU2100 plasmid are the two fragments divided at the same site from EPSPS. The resulting strains are streaked on M63 restrictive medium, and cultured at 37° C.
The pBR322 plasmids constructed in section 3.5 a and their relevant pACYC1184 plasmids constructed in section 3.5 b were introduced respectively or together into E. coli strain AB2829 deficient in aroA gene. Then the strains were streaked on solid M63 restrictive medium and cultured overnight to test the growth.

Molecule | complementation condition, C-terminal | complementation condition, N-terminal
C372: E. coli EPSPS C-terminal fragment, residue 372 to C-terminus (EKLNFAEIATYNDHRMAMCFSLVALSDTPVTILDPKCTAKTFPDYFEQLARISQAA; UniProt P0A6D3 372-427, looked up, fragment) | − | 
C377: E. coli EPSPS C-terminal fragment, residue 377 to C-terminus (AEIATYNDHRMAMCFSLVALSDTPVTILDPKCTAKTFPDYFEQLARISQAA; UniProt P0A6D3 377-427, looked up, fragment) | − | 
C384: E. coli EPSPS C-terminal fragment, residue 384 to C-terminus (DHRMAMCFSLVALSDTPVTILDPKCTAKTFPDYFEQLARISQAA; UniProt P0A6D3 384-427, looked up, fragment) | − | 
N31: E. coli EPSPS N-terminal fragment, N-terminus to residue 31 (MESLTLQPIARVDGTINLPGSKSVSNRALLL; UniProt P0A6D3 1-31, looked up, fragment) |  | −
N165: E. coli EPSPS N-terminal fragment, N-terminus to residue 165 (protein, UniProt P0A6D3 1-165, looked up, fragment) MESLTLQPIARVDGTINLPGSKSVSNRALLLAALAHGKTVLTNLLDSDDVRHMLNALTALGVSYTLSADRTRCEIIGNGGPLHAEGALELFLGNAGTAMRPLAAALCLGSNDIVLTGEPRMKERPIGHLVDALRLGGAKITYLEQENYPPLRLQGGFTGGNVDVD |  | −
C105: E. coli EPSPS C-terminal fragment, residue 105 to C-terminus (protein, UniProt P0A6D3 105-427, looked up, fragment) ALCLGSNDIVLTGEPRMKERPIGHLVDALRLGGAKITYLEQENYPPLRLQGGFTGGNVDVDGSVSSQFLTALLMTAPLAPEDTVIRIKGDLVSKPYIDITLNLMKTFGVEIENQHYQQFVVKGGQSYQSPGTYLVEGDASSASYFLAAAAIKGGTVKVTGIGRNSMQGDIRFADVLEKMGATICWGDDYISCTRGELNAIDMDMNHIPDAAMTIATAALFAKGTTTLRNIYNWRVKETDRLFAMATELRKVGAEVEEGHDYIRITPPEKLNFAEIATYNDHRMAMCFSLVALSDTPVTILDPKCTAKTFPDYFEQLARISQAA | − | 
C185: E. coli EPSPS C-terminal fragment, residue 185 to C-terminus (protein, UniProt P0A6D3 185-427, looked up, fragment) EDTVIRIKGDLVSKPYIDITLNLMKTFGVEIENQHYQQFVVKGGQSYQSPGTYLVEGDASSASYFLAAAAIKGGTVKVTGIGRNSMQGDIRFADVLEKMGATICWGDDYISCTRGELNAIDMDMNHIPDAAMTIATAALFAKGTTTLRNIYNWRVKETDRLFAMATELRKVGAEVEEGHDYIRITPPEKLNFAEIATYNDHRMAMCFSLVALSDTPVTILDPKCTAKTFPDYFEQLARISQAA | − | 
N184: E. coli EPSPS N-terminal fragment, N-terminus to residue 184 (protein, UniProt P0A6D3 1-184, looked up, fragment) MESLTLQPIARVDGTINLPGSKSVSNRALLLAALAHGKTVLTNLLDSDDVRHMLNALTALGVSYTLSADRTRCEIIGNGGPLHAEGALELFLGNAGTAMRPLAAALCLGSNDIVLTGEPRMKERPIGHLVDALRLGGAKITYLEQENYPPLRLQGGFTGGNVDVDGSVSSQFLTALLMTAPLAP |  | −
N154: E. coli EPSPS N-terminal fragment, N-terminus to residue 154 (protein, UniProt P0A6D3 1-154, looked up, fragment) MESLTLQPIARVDGTINLPGSKSVSNRALLLAALAHGKTVLTNLLDSDDVRHMLNALTALGVSYTLSADRTRCEIIGNGGPLHAEGALELFLGNAGTAMRPLAAALCLGSNDIVLTGEPRMKERPIGHLVDALRLGGAKITYLEQENYPPLRLQ |  | −
N85: E. coli EPSPS N-terminal fragment, N-terminus to residue 85 (protein, UniProt P0A6D3 1-85, looked up, fragment) MESLTLQPIARVDGTINLPGSKSVSNRALLLAALAHGKTVLTNLLDSDDVRHMLNALTALGVSYTLSADRTRCEIIGNGGPLHAE |  | −
C166: E. coli EPSPS C-terminal fragment, residue 166 to C-terminus (protein, UniProt P0A6D3 166-427, looked up, fragment) GSVSSQFLTALLMTAPLAPEDTVIRIKGDLVSKPYIDITLNLMKTFGVEIENQHYQQFVVKGGQSYQSPGTYLVEGDASSASYFLAAAAIKGGTVKVTGIGRNSMQGDIRFADVLEKMGATICWGDDYISCTRGELNAIDMDMNHIPDAAMTIATAALFAKGTTTLRNIYNWRVKETDRLFAMATELRKVGAEVEEGHDYIRITPPEKLNFAEIATYNDHRMAMCFSLVALSDTPVTILDPKCTAKTFPDYFEQLARISQAA | − | 
C86: E. coli EPSPS C-terminal fragment, residue 86 to C-terminus (protein, UniProt P0A6D3 86-427, looked up, fragment) GALELFLGNAGTAMRPLAAALCLGSNDIVLTGEPRMKERPIGHLVDALRLGGAKITYLEQENYPPLRLQGGFTGGNVDVDGSVSSQFLTALLMTAPLAPEDTVIRIKGDLVSKPYIDITLNLMKTFGVEIENQHYQQFVVKGGQSYQSPGTYLVEGDASSASYFLAAAAIKGGTVKVTGIGRNSMQGDIRFADVLEKMGATICWGDDYISCTRGELNAIDMDMNHIPDAAMTIATAALFAKGTTTLRNIYNWRVKETDRLFAMATELRKVGAEVEEGHDYIRITPPEKLNFAEIATYNDHRMAMCFSLVALSDTPVTILDPKCTAKTFPDYFEQLARISQAA | − | 
C155: E. coli EPSPS C-terminal fragment, residue 155 to C-terminus (protein, UniProt P0A6D3 155-427, looked up, fragment) GGFTGGNVDVDGSVSSQFLTALLMTAPLAPEDTVIRIKGDLVSKPYIDITLNLMKTFGVEIENQHYQQFVVKGGQSYQSPGTYLVEGDASSASYFLAAAAIKGGTVKVTGIGRNSMQGDIRFADVLEKMGATICWGDDYISCTRGELNAIDMDMNHIPDAAMTIATAALFAKGTTTLRNIYNWRVKETDRLFAMATELRKVGAEVEEGHDYIRITPPEKLNFAEIATYNDHRMAMCFSLVALSDTPVTILDPKCTAKTFPDYFEQLARISQAA | − | 
N104: E. coli EPSPS N-terminal fragment, N-terminus to residue 104 (protein, UniProt P0A6D3 1-104, looked up, fragment) MESLTLQPIARVDGTINLPGSKSVSNRALLLAALAHGKTVLTNLLDSDDVRHMLNALTALGVSYTLSADRTRCEIIGNGGPLHAEGALELFLGNAGTAMRPLAA |  | −
C219: E. coli EPSPS C-terminal fragment, residue 219 to C-terminus (protein, UniProt P0A6D3 219-427, looked up, fragment) HYQQFVVKGGQSYQSPGTYLVEGDASSASYFLAAAAIKGGTVKVTGIGRNSMQGDIRFADVLEKMGATICWGDDYISCTRGELNAIDMDMNHIPDAAMTIATAALFAKGTTTLRNIYNWRVKETDRLFAMATELRKVGAEVEEGHDYIRITPPEKLNFAEIATYNDHRMAMCFSLVALSDTPVTILDPKCTAKTFPDYFEQLARISQAA | − | 
N218: E. coli EPSPS N-terminal fragment, N-terminus to residue 218 (protein, UniProt P0A6D3 1-218, looked up, fragment) MESLTLQPIARVDGTINLPGSKSVSNRALLLAALAHGKTVLTNLLDSDDVRHMLNALTALGVSYTLSADRTRCEIIGNGGPLHAEGALELFLGNAGTAMRPLAAALCLGSNDIVLTGEPRMKERPIGHLVDALRLGGAKITYLEQENYPPLRLQGGFTGGNVDVDGSVSSQFLTALLMTAPLAPEDTVIRIKGDLVSKPYIDITLNLMKTFGVEIENQ |  | −
N182: E. coli EPSPS N-terminal fragment, N-terminus to residue 182 (protein, UniProt P0A6D3 1-182, looked up, fragment) MESLTLQPIARVDGTINLPGSKSVSNRALLLAALAHGKTVLTNLLDSDDVRHMLNALTALGVSYTLSADRTRCEIIGNGGPLHAEGALELFLGNAGTAMRPLAAALCLGSNDIVLTGEPRMKERPIGHLVDALRLGGAKITYLEQENYPPLRLQGGFTGGNVDVDGSVSSQFLTALLMTAPL |  | −
C183: E. coli EPSPS C-terminal fragment, residue 183 to C-terminus (protein, UniProt P0A6D3 183-427, looked up, fragment) APEDTVIRIKGDLVSKPYIDITLNLMKTFGVEIENQHYQQFVVKGGQSYQSPGTYLVEGDASSASYFLAAAAIKGGTVKVTGIGRNSMQGDIRFADVLEKMGATICWGDDYISCTRGELNAIDMDMNHIPDAAMTIATAALFAKGTTTLRNIYNWRVKETDRLFAMATELRKVGAEVEEGHDYIRITPPEKLNFAEIATYNDHRMAMCFSLVALSDTPVTILDPKCTAKTFPDYFEQLARISQAA | − | 

Reference: patent US8936925B2, “Reconstitution of 5-enolpyruvylshikimate-3-phosphate synthase activity by fragment complementation” (priority 2004, dated 2015)
